# T1: spike protein of alphacoronavirus NL63-CoV (HCoV-NL63, UniProt Q6Q1S2 16-1291)
# T1 sequence: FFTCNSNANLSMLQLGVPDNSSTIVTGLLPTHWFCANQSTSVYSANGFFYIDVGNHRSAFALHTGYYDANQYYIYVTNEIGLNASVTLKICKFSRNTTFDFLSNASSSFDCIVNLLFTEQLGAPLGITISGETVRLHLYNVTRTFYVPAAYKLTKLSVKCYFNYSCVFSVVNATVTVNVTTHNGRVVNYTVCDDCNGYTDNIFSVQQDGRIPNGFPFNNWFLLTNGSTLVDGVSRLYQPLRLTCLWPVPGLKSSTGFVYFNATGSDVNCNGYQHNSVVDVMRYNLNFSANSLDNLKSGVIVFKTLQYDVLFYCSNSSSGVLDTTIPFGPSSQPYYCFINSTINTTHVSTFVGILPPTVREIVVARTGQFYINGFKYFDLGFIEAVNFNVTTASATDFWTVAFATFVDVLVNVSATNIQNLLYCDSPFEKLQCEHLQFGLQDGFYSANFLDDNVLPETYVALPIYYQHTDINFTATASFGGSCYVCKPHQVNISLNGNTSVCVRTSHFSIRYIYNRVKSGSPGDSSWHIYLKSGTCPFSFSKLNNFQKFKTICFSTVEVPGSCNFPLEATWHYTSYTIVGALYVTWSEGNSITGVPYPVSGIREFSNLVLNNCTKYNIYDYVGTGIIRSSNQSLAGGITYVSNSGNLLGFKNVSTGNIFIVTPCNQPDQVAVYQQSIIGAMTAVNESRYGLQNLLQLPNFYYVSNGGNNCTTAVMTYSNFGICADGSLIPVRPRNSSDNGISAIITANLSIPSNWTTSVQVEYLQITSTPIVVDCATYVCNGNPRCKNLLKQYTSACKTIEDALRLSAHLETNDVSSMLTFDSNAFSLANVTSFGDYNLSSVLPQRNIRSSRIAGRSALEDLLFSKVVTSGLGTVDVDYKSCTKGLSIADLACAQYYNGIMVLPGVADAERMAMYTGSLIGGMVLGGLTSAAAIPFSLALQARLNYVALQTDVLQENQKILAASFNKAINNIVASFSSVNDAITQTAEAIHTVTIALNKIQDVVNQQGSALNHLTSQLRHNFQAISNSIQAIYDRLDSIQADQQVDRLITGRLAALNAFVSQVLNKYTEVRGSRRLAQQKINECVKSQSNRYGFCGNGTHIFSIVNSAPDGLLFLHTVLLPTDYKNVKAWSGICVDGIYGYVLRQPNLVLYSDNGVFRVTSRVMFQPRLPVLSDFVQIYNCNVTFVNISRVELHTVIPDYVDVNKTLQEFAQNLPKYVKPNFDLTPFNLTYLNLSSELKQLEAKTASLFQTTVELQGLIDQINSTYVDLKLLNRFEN
# T2: HCoV-OC43 prefusion-stabilized spike (S) protein / S ectodomain trimer (human coronavirus OC43, UniProt P36334 14-1297)
# T2 sequence: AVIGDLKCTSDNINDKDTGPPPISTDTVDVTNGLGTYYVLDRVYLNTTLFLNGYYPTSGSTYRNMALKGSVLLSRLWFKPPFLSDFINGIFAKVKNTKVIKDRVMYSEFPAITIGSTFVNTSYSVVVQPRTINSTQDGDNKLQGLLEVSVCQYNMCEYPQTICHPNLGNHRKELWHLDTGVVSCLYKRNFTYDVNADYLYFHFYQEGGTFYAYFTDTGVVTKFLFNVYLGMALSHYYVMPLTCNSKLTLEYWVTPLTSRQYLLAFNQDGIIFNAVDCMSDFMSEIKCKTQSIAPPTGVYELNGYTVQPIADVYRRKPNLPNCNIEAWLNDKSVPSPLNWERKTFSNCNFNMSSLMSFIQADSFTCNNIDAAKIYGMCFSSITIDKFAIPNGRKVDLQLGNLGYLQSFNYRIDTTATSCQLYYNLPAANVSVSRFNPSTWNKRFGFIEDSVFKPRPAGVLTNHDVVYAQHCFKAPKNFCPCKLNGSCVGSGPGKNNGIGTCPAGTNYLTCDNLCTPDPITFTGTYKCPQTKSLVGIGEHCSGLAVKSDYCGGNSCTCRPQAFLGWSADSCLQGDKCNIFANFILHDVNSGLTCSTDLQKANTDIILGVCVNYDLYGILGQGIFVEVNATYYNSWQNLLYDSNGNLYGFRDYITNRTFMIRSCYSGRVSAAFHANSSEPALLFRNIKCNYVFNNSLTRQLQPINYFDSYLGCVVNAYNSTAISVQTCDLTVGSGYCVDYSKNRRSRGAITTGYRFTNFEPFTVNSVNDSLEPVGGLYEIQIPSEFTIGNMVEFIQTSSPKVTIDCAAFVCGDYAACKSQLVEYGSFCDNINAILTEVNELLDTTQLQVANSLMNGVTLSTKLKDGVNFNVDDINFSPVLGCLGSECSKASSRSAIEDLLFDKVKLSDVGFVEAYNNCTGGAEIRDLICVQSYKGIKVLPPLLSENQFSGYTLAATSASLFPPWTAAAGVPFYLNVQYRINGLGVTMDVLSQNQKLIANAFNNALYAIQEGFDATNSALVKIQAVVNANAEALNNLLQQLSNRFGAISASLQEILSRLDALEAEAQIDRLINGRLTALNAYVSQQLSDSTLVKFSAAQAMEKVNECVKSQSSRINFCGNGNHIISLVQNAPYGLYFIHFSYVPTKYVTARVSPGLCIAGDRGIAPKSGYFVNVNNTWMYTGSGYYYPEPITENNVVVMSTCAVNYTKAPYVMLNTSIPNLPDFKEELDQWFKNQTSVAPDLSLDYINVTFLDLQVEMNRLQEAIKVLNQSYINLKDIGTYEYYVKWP
# B1: antibody S2P6 (antibody 420 1 1), human monoclonal antibody expressed as recombinant human IgG1 (antibody, V domains shown)
# VH: EVQLVQSGAEVKKPGASVKVSCKASGYTFTSQYMHWVRQAPGQGLEWIGIINPSGVHTSYAQKFQGRVTLTRDTSTSTLYMELSSLRSEDTAVYYCARGSPKGAFDYWGQGTLVTVSS
# VL: not shown
# How the values were obtained:
# [1] = molecular target: T1, spike protein of alphacoronavirus …; experiment: ELISA on alphacoronavirus spike proteins (Fig 37)
# [2] = molecular target: T2, HCoV-OC43 prefusion-stabilized spike …
binder,measurement,setting,value
B1,binding result,[1],no binding
same,Kd,[2],372 pM

# Source: JP2023550785A (dated 2023)
